{"source": "paper PMC9823235", "about": "(The Journal of Biological Chemistry, 2022)", "proteins": {"B1": {"name": "B subunit of Stx2a ([change]), pentameric (natural protein)", "chain": "ADCAKGKIEFSKYNEDDTFTVKVDGKEYWTSRWNLQPLLQSAQLTGMTVTIKSSTCESGSGFAEVQFNND"}}, "molecular_target": "the molecule itself", "assay": "cryo-EM structure"}
{"protein": "B1", "values": [{"measurement": "stoichiometry N", "value": 5}]}
